Columns and labels:
[1] = confocal microscopy, apical marker gp135, MDCKII; details: glycan lost; control: wild type
[2] = immunoblot of PNGase F-treated MDCKII lysates, densitometry; details: glycan lost; control: wild type
[3] = immunoblot, ABCC11-EGFP in MDCKII, PNGase F-treated lysates; details: glycan lost; control: untreated cells
[4] = cycloheximide chase, immunoblot, MDCKII; details: glycan lost; control: wild type
[5] = immunoblot after 24 h 2 μM MG132; details: glycan lost; control: wild type
[6] = confocal microscopy after 12 h cycloheximide; details: glycan lost; control: wild type
[7] = immunoblot, high vs low glucose medium, MDCKII; details: glycan lost; control: wild type
[8] = immunoblot, non-tagged ABCC11, adenovirus-infected MDCKII; details: glycan lost; control: untreated cells
[9] = immunoblot of ABCC11 WT, with/without PNGase F, MDCKII; details: glycan lost; control: high glucose medium

## ABCC11 (MRP8): Q838
[1]
  localisation_or_trafficking: no change
[2]
  expression_or_secretion, percent_of_wt: no change

## ABCC11 (MRP8): Q844
[1]
  localisation_or_trafficking: no change
[2]
  expression_or_secretion, percent_of_wt: no change

## ABCC11 (MRP8): tunicamycin (0.8, 4.0 μg/mL)
[3]
  expression_or_secretion: decreases

## ABCC11 (MRP8): Q838/844
[4]
  degradation_or_half_life, half_life: decreases, about 6.2 vs about 12
[5]
  other: MG132-sensitive degradation, fold_change: increases, about 2-fold vs no significant difference
[6]
  degradation_or_half_life: decreases
[7]
  other: glucose sensitivity of protein level: abolishes
[2]
  expression_or_secretion, percent_of_wt: decreases

## ABCC11 (MRP8): tunicamycin (4.0 μg/mL)
[8]
  expression_or_secretion, other: percent of untreated control: decreases

## ABCC11 (MRP8): low glucose medium
[9]
  expression_or_secretion: decreases
